The target of assay [1] is T1, nivolumab.
T1 construct: also called NV1; NV1 nivo
The assay can be described thus: bacterial display clone with labeled NV1.

The target in assay [2] is T2, pembrolizumab.
T2 construct: also called PM1; PM1 AB
The assay can be described thus: bacterial display clone with labeled PM1.

For assay [3], the target named is T3, J43v2 mIgG2a.
T3 construct: also called J43 m2a; J43v2 m2a
Nature of the assay: bacterial display clone with DyLight 650 labeled J43v2 m2a.

Assay [4] deals with T4, human PD-1-Fc (R and D systems, Minneapolis, Minn.) (human, UniProt Q15116 25-167).
T4 construct: bought; also called hPD-1-Fc; hPD-1; not shown: Fc part of the bought fusion
T4 sequence (Q15116 25-167 limits assumed): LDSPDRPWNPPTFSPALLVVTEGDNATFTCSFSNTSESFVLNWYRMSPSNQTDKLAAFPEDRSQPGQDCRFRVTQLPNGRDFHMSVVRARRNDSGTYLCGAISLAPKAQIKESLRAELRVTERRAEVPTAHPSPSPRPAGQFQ
Nature of the assay: plate ELISA on human PD-1-Fc; reference A1.5.

Assay [5] concerns the target T4, human PD-1-Fc (R and D systems, …). Nature of the assay: plate ELISA on human PD-1-Fc; apparent KD.
For assay [6] the target is unchanged. The assay can be described thus: plate ELISA on human PD-1-Fc; reference A1.5. The source holds these as a separate data set. On the technique in general: An ELISA detects its analyte on a solid surface through an enzyme-linked reagent.

Data on 40 molecules can be found in US20170044259A1 (CYTOMX THERAPEUTICS, published 2017).

T2 sequence (VH, as listed by the source, chain 1 of 2): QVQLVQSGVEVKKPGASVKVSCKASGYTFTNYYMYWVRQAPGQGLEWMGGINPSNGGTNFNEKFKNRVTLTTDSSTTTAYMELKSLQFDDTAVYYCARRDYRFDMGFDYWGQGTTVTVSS
T2 sequence (VL, as listed by the source, chain 2 of 2): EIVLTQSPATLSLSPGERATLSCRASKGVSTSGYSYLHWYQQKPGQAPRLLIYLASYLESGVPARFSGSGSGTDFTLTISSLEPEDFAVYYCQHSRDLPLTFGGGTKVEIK
T3 sequence (VH, as listed by the source, chain 1 of 2): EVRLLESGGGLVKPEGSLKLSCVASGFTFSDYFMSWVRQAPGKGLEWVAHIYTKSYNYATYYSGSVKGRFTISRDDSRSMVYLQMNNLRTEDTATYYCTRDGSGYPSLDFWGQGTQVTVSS
T3 sequence (VL, as listed by the source, chain 2 of 2): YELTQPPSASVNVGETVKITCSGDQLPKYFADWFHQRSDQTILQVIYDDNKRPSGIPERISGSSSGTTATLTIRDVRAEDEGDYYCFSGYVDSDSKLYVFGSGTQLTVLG
T1 sequence (VH, as listed by the source, chain 1 of 2): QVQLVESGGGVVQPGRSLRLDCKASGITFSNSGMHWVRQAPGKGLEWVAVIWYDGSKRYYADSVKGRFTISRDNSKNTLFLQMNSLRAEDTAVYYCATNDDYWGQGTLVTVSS
T1 sequence (VL, as listed by the source, chain 2 of 2): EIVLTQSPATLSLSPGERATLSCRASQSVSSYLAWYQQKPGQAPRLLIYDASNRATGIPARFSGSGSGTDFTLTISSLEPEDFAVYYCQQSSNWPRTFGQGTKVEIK

Consider KCSRPAHQNPDRCSR (bacterial display clone) [masking moiety NV04], for which the binding result in assay [1] is “binds”.

B1: masking moiety PM01 (peptide)
peptide: GCDFTSAKHNCGSGW
notes: bacterial display clone; also called PM001
With B1, the binding result in assay [2] is recorded as “binds”.

For the molecule YTFGCPDRYCDRAAT (bacterial display clone) [masking moiety NV07], in assay [1], the binding result is “binds”. For the molecule FCPPWLDYLGNKCMT (bacterial display clone) [masking moiety PM04], in assay [2], the binding result was “binds”. Still for that read-out and setting: under WTYENCWASCQPHLE (bacterial display clone) [masking moiety PM08] stands “binds”.

B2: masking moiety MP006 (peptide)
peptide: VEHLCYTHNKCKHPD
notes: bacterial display clone; also called MP06
For B2, the binding result in assay [3] is “binds”. For the molecule ASYRCPDYKCSHTKH (bacterial display clone) [masking moiety NV05], the binding result in assay [1] was “binds”. Consider HCIPDFTSAAGDCMR (bacterial display clone) [masking moiety PM12], for which, in assay [2], the binding result is given as “binds”.

B3: masking moiety MP005 (peptide)
peptide: PGNCHPMQKEMCQFI
notes: bacterial display clone; also called MP05
Consider B3, for which the binding result in assay [3] was “binds”. Regarding VGQSCFSGLVCDRQL (bacterial display clone) [masking moiety PM10], the binding result in assay [2] is “binds”.

B4: PD-1 1.5 PD025 2001 (antibody, human IgG4 S228P, kappa)
heavy: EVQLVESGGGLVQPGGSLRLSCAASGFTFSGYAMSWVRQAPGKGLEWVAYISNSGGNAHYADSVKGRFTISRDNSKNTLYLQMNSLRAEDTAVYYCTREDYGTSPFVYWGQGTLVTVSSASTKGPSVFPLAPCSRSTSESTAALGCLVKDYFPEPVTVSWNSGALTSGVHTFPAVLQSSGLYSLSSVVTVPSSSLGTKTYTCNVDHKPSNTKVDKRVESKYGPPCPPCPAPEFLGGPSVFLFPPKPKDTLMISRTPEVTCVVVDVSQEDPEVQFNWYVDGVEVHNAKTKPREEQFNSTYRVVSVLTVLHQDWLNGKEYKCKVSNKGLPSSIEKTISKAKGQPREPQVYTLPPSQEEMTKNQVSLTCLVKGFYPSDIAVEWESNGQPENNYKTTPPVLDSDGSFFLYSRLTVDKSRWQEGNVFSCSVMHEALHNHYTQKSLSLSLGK
light: QGQSGQGSRCSVYEVSSGLCDWGGGSSGGSISSGLLSGRSDNHGGGSDIQLTQSPSSLSASVGDRVTITCRASESVDAYGISFMNWFQQKPGKAPKLLIYAASNQGSGVPSRFSGSGSGTDFTLTISSMQPEDFATYYCQQSKDVPWTFGQGTKLEIKRTVAAPSVFIFPPSDEQLKSGTASVVCLLNNFYPREAKVQWKVDNALQSGNSQESVTEQDSKDSTYSLSSTLTLSKADYEKHKVYACEVTHQGLSSPVTKSFNRGEC
B4: in assay [4], the “ME (masking efficiency, Kd of the activatable antibody divided by Kd of the parental antibody)” value was determined as 30.

B5: PD-1 1.5 PD022 2001 (antibody, human IgG4 S228P, kappa)
heavy: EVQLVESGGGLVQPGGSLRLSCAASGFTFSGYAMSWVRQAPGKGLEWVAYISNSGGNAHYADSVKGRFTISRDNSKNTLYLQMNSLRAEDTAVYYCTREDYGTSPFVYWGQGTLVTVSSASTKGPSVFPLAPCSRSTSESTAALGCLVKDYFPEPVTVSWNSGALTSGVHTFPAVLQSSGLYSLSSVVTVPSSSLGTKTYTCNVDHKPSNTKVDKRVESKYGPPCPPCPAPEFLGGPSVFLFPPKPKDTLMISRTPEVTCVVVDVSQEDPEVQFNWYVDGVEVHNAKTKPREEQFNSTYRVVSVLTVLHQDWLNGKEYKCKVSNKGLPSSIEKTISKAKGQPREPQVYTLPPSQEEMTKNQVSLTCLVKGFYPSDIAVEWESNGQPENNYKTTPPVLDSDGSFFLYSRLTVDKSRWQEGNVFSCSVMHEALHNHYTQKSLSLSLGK
light: QGQSGQGFYCTYLVSLTCHPQGGGSSGGSISSGLLSGRSDNHGGGSDIQLTQSPSSLSASVGDRVTITCRASESVDAYGISFMNWFQQKPGKAPKLLIYAASNQGSGVPSRFSGSGSGTDFTLTISSMQPEDFATYYCQQSKDVPWTFGQGTKLEIKRTVAAPSVFIFPPSDEQLKSGTASVVCLLNNFYPREAKVQWKVDNALQSGNSQESVTEQDSKDSTYSLSSTLTLSKADYEKHKVYACEVTHQGLSSPVTKSFNRGEC
As to B5, the Kd in assay [5] came to 41 nM. Also, the “Masking Efficiency” value in assay [6] stood at 23. Regarding LPRCPDHPIKCIETK (bacterial display clone) [masking moiety NV06], the binding result in assay [1] is listed as “binds”.

B6: masking moiety PM02 (peptide)
peptide: VGSNCWTGPACALTS
notes: bacterial display clone; also called PM002
Consider B6, for which the binding result in assay [2] is recorded as “binds”.

B7: masking moiety MP003 (peptide)
peptide: TNIWSCQTYCDHKHK
notes: bacterial display clone; also called MP03
As for B7, in assay [3], the binding result is listed as “binds”.

Take MSCWDFSSAQGCGQH (bacterial display clone) [masking moiety PM05]: in assay [2], the binding result is reported as “binds”.

B8: masking moiety MP010 (peptide)
peptide: IPCHHSADHKHKCTS
notes: bacterial display clone; also called MP10
Regarding B8, the binding result in assay [3] is on record as “binds”.

B9: masking moiety MP012 (peptide)
peptide: QPCNPQIDHKIKCIY
notes: bacterial display clone; also called MP12
Take B9: in assay [3], the binding result is on record as “binds”. Turning to ISHYCFSGKSCRD (bacterial display clone) [masking moiety PM11], the binding result in assay [2] is given as “binds”. As to PRPQCHHRHNCPDHP (bacterial display clone) [masking moiety NV03], the binding result in assay [1] was “binds”. Still for that read-out and setting: under RDYCGPQSPDYCHEI (bacterial display clone) [masking moiety NV09] stands “binds”. The same measure, in the same setting: under RGCPDFNPPSHCYTA (bacterial display clone) [masking moiety NV08] stands “binds”. As to FCAVMFDFLSDRCLH (bacterial display clone) [masking moiety PM03], in assay [2], the binding result is listed as “binds”.

B10: masking moiety MP002 (peptide)
peptide: ILCPEDPWGHKCKLP
notes: bacterial display clone; also called MP02; MP-02
For the molecule B10, the binding result in assay [3] is “binds”.

B11: masking moiety NV01 (peptide)
peptide: RYCHAANPDRFCGIY
notes: bacterial display clone; also called NV001
As for B11, the binding result in assay [1] is reported as “binds”.

B12: masking moiety MP007 (peptide)
peptide: TIPRCGQHPKCKDTL
notes: bacterial display clone; also called MP07
In the case of B12, the binding result in assay [3] is recorded as “binds”.

B13: masking moiety MP008 (peptide)
peptide: ACRICQDHPKTKWNS
notes: bacterial display clone; also called MP08
For B13, the binding result in assay [3] is “binds”. LMCADLHYNHYNCKY (bacterial display clone) [masking moiety PM06]: in assay [2], the binding result was “binds”.

B14: masking moiety MP014 (peptide)
peptide: ANSCLAVEHKCKHNY
notes: bacterial display clone; also called MP14
With B14, the binding result in assay [3] is “binds”. On to PRVACGEPDLCYSNT (bacterial display clone) [masking moiety NV11], for which the binding result in assay [1] was “binds”.

B15: masking moiety MP009 (peptide)
peptide: LIQCTGNLDHKCKHY
notes: bacterial display clone; also called MP09
Turning to B15, the binding result in assay [3] is “binds”. PNKPCPDLQCYVTNY (bacterial display clone) [masking moiety NV10]: the binding result in assay [1] is listed as “binds”. For the molecule KLTEDFSSAA (bacterial display clone) [masking moiety PM09], in assay [2], the binding result was “binds”.

B16: masking moiety MP013 (peptide)
peptide: HYTICMTHNKCKDMA
notes: bacterial display clone; also called MP13
For the molecule B16, the binding result in assay [3] is listed as “binds”.

B17: masking moiety MP004 (peptide)
peptide: SDHKCKLQNCMNTKV
notes: bacterial display clone; also called MP04
In the case of B17, in assay [3], the binding result is recorded as “binds”.

B18: masking moiety MP011 (peptide)
peptide: SRQICADYNCHNKYK
notes: bacterial display clone; also called MP11
Turning to B18, the binding result in assay [3] is “binds”.

On to ELCGWQSFSGVCTSE (bacterial display clone) [masking moiety PM07], for which the binding result in assay [2] was “binds”. Turning to RGCKKHTISTLTCPD (bacterial display clone) [masking moiety NV12], the binding result in assay [1] was “binds”.

B19: masking moiety MP001 (peptide)
peptide: DYTYCRWVNWCLSGV
notes: bacterial display clone; also called MP01; MP-01
With B19, the binding result in assay [3] is given as “binds”.

B20: masking moiety NV02 (peptide)
peptide: PRVCSTDGGDYCLLP
notes: bacterial display clone; also called NV002
For B20, the binding result in assay [1] was “binds”.
